system: Escherichia coli TOP10; test: shrunken log2 fold change of peptide-encoding DNA abundance (4.5 h post-induction vs induction); higher = less antimicrobial activity (less host growth inhibition); conditions: time post-induction: 4.5 h; library: site-saturation at positions 5, 18, 19, 20
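Also: peptides expressed intracellularly from a pBAD plasmid library in pooled LB shake-flask culture, induced with 0.3% L-arabinose, DNA abundance read by NGS, three biological replicates, DESeq2 with apeglm shrinkage.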

Row | Sequence | shrunken log2 fold change
1 | RRIRNRPPRLPRPRPRPCRYPRP | -0.148
2 | RRIRNRPPRLPRPRPRPCSAPRP | -0.292
3 | RRIRNRPPRLPRPRPRPCSGPRP | -0.242
4 | RRIRNRPPRLPRPRPRPCSLPRP | -0.262
5 | RRIRNRPPRLPRPRPRPCVEPRP | -0.209
6 | RRIRNRPPRLPRPRPRPCWFPRP | -0.00192
7 | RRIRNRPPRLPRPRPRPCWMPRP | -0.18
8 | RRIRNRPPRLPRPRPRPCWQPRP | -0.0118
9 | RRIRNRPPRLPRPRPRPDANPRP | -0.318
10 | RRIRNRPPRLPRPRPRPDCPPRP | -0.031
11 | RRIRNRPPRLPRPRPRPDCYPRP | -0.871
12 | RRIRNRPPRLPRPRPRPDERPRP | 0.0408
13 | RRIRNRPPRLPRPRPRPDEVPRP | -0.00973
14 | RRIRNRPPRLPRPRPRPDFAPRP | -0.0617
15 | RRIRNRPPRLPRPRPRPDFKPRP | -0.0167
16 | RRIRNRPPRLPRPRPRPDHWPRP | 0.0703
17 | RRIRNRPPRLPRPRPRPDKKPRP | -0.0263
18 | RRIRNRPPRLPRPRPRPDKNPRP | -0.226
19 | RRIRNRPPRLPRPRPRPDLAPRP | 0.02
20 | RRIRNRPPRLPRPRPRPDLVPRP | -0.15
21 | RRIRNRPPRLPRPRPRPDMGPRP | -0.00968
22 | RRIRNRPPRLPRPRPRPDMLPRP | -0.116
23 | RRIRNRPPRLPRPRPRPDQFPRP | -0.0466
24 | RRIRNRPPRLPRPRPRPDQPPRP | 0.00646
25 | RRIRNRPPRLPRPRPRPDVEPRP | -0.00443

Row | Sequence | shrunken log2 fold change
26 | RRIRNRPPRLPRPRPRPDVSPRP | -0.0754
27 | RRIRNRPPRLPRPRPRPDWWPRP | 0.304
28 | RRIRNRPPRLPRPRPRPDYQPRP | -0.165
29 | RRIRNRPPRLPRPRPRPDYVPRP | -0.296
30 | RRIRNRPPRLPRPRPRPECDPRP | 0.203
31 | RRIRNRPPRLPRPRPRPECKPRP | 0.0615
32 | RRIRNRPPRLPRPRPRPEDIPRP | -0.194
33 | RRIRNRPPRLPRPRPRPEGHPRP | 0.00677
34 | RRIRNRPPRLPRPRPRPEGKPRP | -0.0135
35 | RRIRNRPPRLPRPRPRPEGVPRP | 0.205
36 | RRIRNRPPRLPRPRPRPEHWPRP | -0.0343
37 | RRIRNRPPRLPRPRPRPEKPPRP | -0.233
38 | RRIRNRPPRLPRPRPRPELAPRP | 0.0428
39 | RRIRNRPPRLPRPRPRPELPPRP | -0.098
40 | RRIRNRPPRLPRPRPRPEMFPRP | 0.0119
41 | RRIRNRPPRLPRPRPRPEPHPRP | 0.131
42 | RRIRNRPPRLPRPRPRPEQAPRP | 0.632
43 | RRIRNRPPRLPRPRPRPEQFPRP | -0.0122
44 | RRIRNRPPRLPRPRPRPEQWPRP | -0.0114
45 | RRIRNRPPRLPRPRPRPERAPRP | 0.362
46 | RRIRNRPPRLPRPRPRPERWPRP | 0.699
47 | RRIRNRPPRLPRPRPRPETYPRP | -0.554
48 | RRIRNRPPRLPRPRPRPEYHPRP | 0.0524
49 | RRIRNRPPRLPRPRPRPEYSPRP | -0.272
50 | RRIRNRPPRLPRPRPRPFACPRP | 0.0153

Row | Sequence | shrunken log2 fold change
51 | RRIRNRPPRLPRPRPRPFADPRP | 0.0675
52 | RRIRNRPPRLPRPRPRPFAMPRP | -0.177
53 | RRIRNRPPRLPRPRPRPFCMPRP | -0.45
54 | RRIRNRPPRLPRPRPRPFCNPRP | -0.126
55 | RRIRNRPPRLPRPRPRPFDIPRP | -0.701
56 | RRIRNRPPRLPRPRPRPFDPPRP | -0.805
57 | RRIRNRPPRLPRPRPRPFFQPRP | -0.427
58 | RRIRNRPPRLPRPRPRPFHRPRP | -0.211
59 | RRIRNRPPRLPRPRPRPFKSPRP | -0.014
60 | RRIRNRPPRLPRPRPRPFLTPRP | -0.505
61 | RRIRNRPPRLPRPRPRPFMKPRP | -0.0163
62 | RRIRNRPPRLPRPRPRPFMPPRP | -0.209
63 | RRIRNRPPRLPRPRPRPFPNPRP | -0.33
64 | RRIRNRPPRLPRPRPRPFPRPRP | 0.0857
65 | RRIRNRPPRLPRPRPRPFQEPRP | -0.0276
66 | RRIRNRPPRLPRPRPRPFQFPRP | -0.0984
67 | RRIRNRPPRLPRPRPRPFRMPRP | 0.00572
68 | RRIRNRPPRLPRPRPRPFSFPRP | -0.186
69 | RRIRNRPPRLPRPRPRPFSGPRP | -0.277
70 | RRIRNRPPRLPRPRPRPFSLPRP | -0.0274
71 | RRIRNRPPRLPRPRPRPFTIPRP | -0.28
72 | RRIRNRPPRLPRPRPRPFTKPRP | -0.0763
73 | RRIRNRPPRLPRPRPRPFTVPRP | -0.00101
74 | RRIRNRPPRLPRPRPRPFVLPRP | -0.451
75 | RRIRNRPPRLPRPRPRPFVYPRP | -0.0264

Row | Sequence | shrunken log2 fold change
76 | RRIRNRPPRLPRPRPRPFWTPRP | -0.132
77 | RRIRNRPPRLPRPRPRPFYCPRP | -0.937
78 | RRIRNRPPRLPRPRPRPFYEPRP | -0.233
79 | RRIRNRPPRLPRPRPRPGALPRP | 0.0726
80 | RRIRNRPPRLPRPRPRPGCHPRP | -0.318
81 | RRIRNRPPRLPRPRPRPGCIPRP | -0.173
82 | RRIRNRPPRLPRPRPRPGCYPRP | -0.24
83 | RRIRNRPPRLPRPRPRPGDFPRP | 0.264
84 | RRIRNRPPRLPRPRPRPGDKPRP | -0.105
85 | RRIRNRPPRLPRPRPRPGDVPRP | -0.0732
86 | RRIRNRPPRLPRPRPRPGEGPRP | 0.196
87 | RRIRNRPPRLPRPRPRPGGQPRP | 0.0599
88 | RRIRNRPPRLPRPRPRPGHWPRP | 0.291
89 | RRIRNRPPRLPRPRPRPGIQPRP | 0.00115
90 | RRIRNRPPRLPRPRPRPGISPRP | 0.0154
91 | RRIRNRPPRLPRPRPRPGKIPRP | -0.284
92 | RRIRNRPPRLPRPRPRPGKNPRP | 0.0906
93 | RRIRNRPPRLPRPRPRPGLCPRP | 0.685
94 | RRIRNRPPRLPRPRPRPGLHPRP | -0.0523
95 | RRIRNRPPRLPRPRPRPGNPPRP | 0.0273
96 | RRIRNRPPRLPRPRPRPGPCPRP | -0.0814
97 | RRIRNRPPRLPRPRPRPGPPPRP | 0.581
98 | RRIRNRPPRLPRPRPRPGQQPRP | -0.0199
99 | RRIRNRPPRLPRPRPRPGTCPRP | -0.0314
100 | RRIRNRPPRLPRPRPRPGVLPRP | 0.222

Row | Sequence | shrunken log2 fold change
101 | RRIRNRPPRLPRPRPRPGVRPRP | 0.212
102 | RRIRNRPPRLPRPRPRPGWKPRP | -0.00965
103 | RRIRNRPPRLPRPRPRPGWVPRP | 0.282
104 | RRIRNRPPRLPRPRPRPGYLPRP | 0.114
105 | RRIRNRPPRLPRPRPRPHADPRP | -0.315
106 | RRIRNRPPRLPRPRPRPHAGPRP | 0.00938
107 | RRIRNRPPRLPRPRPRPHAPPRP | 0.0879
108 | RRIRNRPPRLPRPRPRPHCSPRP | -0.095
109 | RRIRNRPPRLPRPRPRPHCTPRP | -0.0475
110 | RRIRNRPPRLPRPRPRPHFCPRP | -0.144
111 | RRIRNRPPRLPRPRPRPHFNPRP | -0.608
112 | RRIRNRPPRLPRPRPRPHFQPRP | 0.0313
113 | RRIRNRPPRLPRPRPRPHGKPRP | 0.0681
114 | RRIRNRPPRLPRPRPRPHGNPRP | -0.189
115 | RRIRNRPPRLPRPRPRPHHIPRP | -0.282
116 | RRIRNRPPRLPRPRPRPHHMPRP | -1.41
117 | RRIRNRPPRLPRPRPRPHIKPRP | -0.595
118 | RRIRNRPPRLPRPRPRPHLKPRP | -0.875
119 | RRIRNRPPRLPRPRPRPHLRPRP | -0.447
120 | RRIRNRPPRLPRPRPRPHMKPRP | -0.243
121 | RRIRNRPPRLPRPRPRPHMQPRP | -0.304
122 | RRIRNRPPRLPRPRPRPHQFPRP | -0.000243
123 | RRIRNRPPRLPRPRPRPHQVPRP | 0.0294
124 | RRIRNRPPRLPRPRPRPHQWPRP | -0.0998
125 | RRIRNRPPRLPRPRPRPHRDPRP | -0.0417

Row | Sequence | shrunken log2 fold change
126 | RRIRNRPPRLPRPRPRPHSFPRP | -0.258
127 | RRIRNRPPRLPRPRPRPHSRPRP | -0.0742
128 | RRIRNRPPRLPRPRPRPHTIPRP | -0.106
129 | RRIRNRPPRLPRPRPRPHVQPRP | -0.0883
130 | RRIRNRPPRLPRPRPRPHVWPRP | 0.0415
131 | RRIRNRPPRLPRPRPRPHWDPRP | -0.136
132 | RRIRNRPPRLPRPRPRPHWNPRP | -1.01
133 | RRIRNRPPRLPRPRPRPIAGPRP | -0.0235
134 | RRIRNRPPRLPRPRPRPICTPRP | -0.122
135 | RRIRNRPPRLPRPRPRPIEDPRP | -0.0858
136 | RRIRNRPPRLPRPRPRPIEPPRP | -0.00208
137 | RRIRNRPPRLPRPRPRPIFCPRP | -0.0368
138 | RRIRNRPPRLPRPRPRPIFIPRP | -0.44
139 | RRIRNRPPRLPRPRPRPIFVPRP | -0.0459
140 | RRIRNRPPRLPRPRPRPIFWPRP | -0.162
141 | RRIRNRPPRLPRPRPRPIFYPRP | 0.00954
142 | RRIRNRPPRLPRPRPRPIGNPRP | 0.0106
143 | RRIRNRPPRLPRPRPRPIHCPRP | -0.244
144 | RRIRNRPPRLPRPRPRPIHDPRP | 0.177
145 | RRIRNRPPRLPRPRPRPIHKPRP | -0.377
146 | RRIRNRPPRLPRPRPRPIIKPRP | -0.463
147 | RRIRNRPPRLPRPRPRPIILPRP | -0.234
148 | RRIRNRPPRLPRPRPRPIIVPRP | -0.286
149 | RRIRNRPPRLPRPRPRPIKDPRP | -0.4
150 | RRIRNRPPRLPRPRPRPIMGPRP | -0.0169
